Where two headings read alike, the source gives them in different places.
Tests used:
eIF4E = target: T1, eIF4E (Homo sapiens, UniProt P06730); experiment: Streptavidin-agarose pull-down of biotinylated peptide from OVCAR-3 cell lysate, Western blot with eIF4E antibody; type: binding; conditions: biotinylated peptide 3 micromoles per liter, 250 micrograms OVCAR-3 cell lysate
T1 construct: endogenous in cells; host or cells: OVCAR-3 cell lysate
Experimental: (§1) FIGS. 1A-1G. 4EBP peptides bind eIF4E and inhibit binding of eIF4E to eIF4G. (FIG. 1A) Sequences of peptides comprising residues 49 to 68 of 4EBP1 and 4EBP2. (FIG. 1B) Biotinylated peptides (3 micromoles per liter) were incubated with 250 micrograms of OVCAR-3 cell lysate. Peptides were pulled-down using streptavidin-agarose. Precipitates (P) and supernatants (S) were analyzed by Western blot using eIF4E antibody. In (FIG. 1C), immunoprecipitation was performed using eIF4E antibody, and Western blot performed using eIF4G antibody. (FIG. 1D) Sequences of wild-type and mutant 4EBP peptides fused to TAT (mutant residues are highlighted). (FIG. 1E) OVCAR-3 cells were treated with biotinylated peptides (3 micromoles per liter, final concentration) for 16 hours. Internalized peptides were detected by staining fixed cells with Texas Red-conjugated streptavidin. Nuclei were visualized by staining with 4′,6-Diamidino-2-Phenylindole (DAPI). (FIGS. 1F and 1G) OVCAR-3 cell lysates were incubated with peptides as described for FIG. 1B. In (FIG. 1F), immunoprecipitation was performed using streptavidin-agarose and Western blot performed using eIF4E antibody. In (FIG. 1G), immunoprecipitation was performed using eIF4E antibody, and Western blot performed using eIF4G antibody.
(§2) FIGS. 3A-3H. Uptake, binding and inhibitory effects of [DLys6]GnRH-4EBP fusion peptides. (FIG. 3A) Sequences of [DLys6]GnRH, and wild-type and mutant 4EBP1 peptides fused to the agonist. (FIG. 3B) Western blot of GnRH-RI levels in OVCAR-3, ES-2, MDA-MB-231, BJ, HUVEC and SKOV3 cells. (FIG. 3C) Detection of biotinylated peptides in OVCAR-3 and SKOV3 by Texas Red-conjugated streptavidin at 16 hours after peptide addition (3 micromoles per liter). In (FIGS. 3D and 3E), biotinylated peptides were incubated with OVCAR-3 cell lysate as described in FIG. 1. In (FIG. 3D), peptide was pulled down using streptavidin-agarose. Precipitates (P) and supernatants (S) were analyzed by Western blot using eIF4E antibody. In (FIG. 3E), immunoprecipitation was performed using eIF4E antibody, and Western blot performed using eIF4G antibody. (FIG. 3F) R-Luc and F-Luc activities were assayed in ES-2-DualLuc cells at 6 hours after addition of the indicated concentrations of peptides, and are expressed relative to the respective luciferase activities in cells incubated without peptide. Shown are results of triplicate assays performed independently two times, and the statistical significance of differences in relative R-Luc and F-Luc activities in cells treated with peptide at a concentration of 10 micromoles per liter (FIG. 3G) Cells of GnRH-RI-positive and -negative lines were treated with the indicated concentrations of peptides. […]

[1] = target: T2, binding of eIF4E to eIF4G (Homo sapiens, UniProt P06730); experiment: Immunoprecipitation with eIF4E antibody and Western blot with eIF4G antibody, OVCAR-3 cell lysate incubated with peptide; conditions: peptide 3 micromoles per liter, 250 micrograms OVCAR-3 cell lysate
T2 construct: endogenous in cells; host or cells: OVCAR-3 cell lysate
T2 sequence (P06730 2-217 limits assumed): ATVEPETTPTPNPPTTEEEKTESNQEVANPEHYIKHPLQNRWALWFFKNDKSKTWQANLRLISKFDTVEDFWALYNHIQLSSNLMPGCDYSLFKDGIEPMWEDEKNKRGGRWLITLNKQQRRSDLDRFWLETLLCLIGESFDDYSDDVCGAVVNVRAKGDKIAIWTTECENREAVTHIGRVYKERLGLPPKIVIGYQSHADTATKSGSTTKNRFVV
Experimental: as §1, §2

ES-2-DualLuc cells = experiment: Cell-based translation assay with bicistronic R-Luc/F-Luc reporter
Experimental: (§3) FIGS. 2A-2F. Inhibition of cap-dependent translation and cell growth by TAT-4EBP fusion peptides. (FIG. 2A) Representation of the pIRES-DualLuc bicistronic construct containing Renilla Luciferase (R-Luc) and firefly luciferase (F-Luc) genes. In (FIG. 2B), R-Luc and F-Luc activities were assayed in ES-2-DualLuc cells following treatment for 24 hours with rapamycin and for 3 hours with cycloheximide with the indicated concentrations of these drugs, and expressed relative to the respective luciferase activities in cells incubated without drug. Cell viability was not affected by rapamycin and cycloheximide under these conditions. In (FIG. 2C), R-Luc and F-Luc activities were assayed in ES-2-DualLuc cells following treatment for 6 hours with the indicated concentrations of peptides, and expressed relative to the respective luciferase activities in cells incubated without peptide. Shown are results of triplicate assays performed independently two times, and the statistical significance of differences in relative R-Luc and F-Luc activities in cells treated with peptide at a concentration of 10 micromoles per liter. (FIG. 2D) Viability of OVCAR-3 cells at 3 days after addition of the indicated concentrations of peptides, expressed relative to viability of cells incubated without peptide. Shown are results of triplicate assays performed in two independent experiments, and statistical significances of differences in viability of cells treated with TAT-4EBP1-WT vs. TAT-4EBP1-MT, and of cells treated with TAT-4EBP2-WT vs. TAT-4EBP2-MT at a concentration of 10 micromoles per liter. (FIG. 2E) OVCAR-3 cells at 3 days after peptide addition (10 micromoles per liter) viewed under phase-contrast microscopy. (FIG. 2F) Flow cytometric analysis of staining of terminal deoxynucleotidyl transferase-mediated dUTP nick end labeling (TUNEL) in OVCAR-3 cells at 3 days after peptide addition (10 micromoles per liter). Cells incubated for 3 days in the absence of peptide in medium with and without serum are included as controls.
FIGS. 3A-3H. Uptake, binding and inhibitory effects of [DLys6]GnRH-4EBP fusion peptides. (FIG. 3A) Sequences of [DLys6]GnRH, and wild-type and mutant 4EBP1 peptides fused to the agonist. (FIG. 3B) Western blot of GnRH-RI levels in OVCAR-3, ES-2, MDA-MB-231, BJ, HUVEC and SKOV3 cells. (FIG. 3C) Detection of biotinylated peptides in OVCAR-3 and SKOV3 by Texas Red-conjugated streptavidin at 16 hours after peptide addition (3 micromoles per liter). In (FIGS. 3D and 3E), biotinylated peptides were incubated with OVCAR-3 cell lysate as described in FIG. 1. In (FIG. 3D), peptide was pulled down using streptavidin-agarose. Precipitates (P) and supernatants (S) were analyzed by Western blot using eIF4E antibody. In (FIG. 3E), immunoprecipitation was performed using eIF4E antibody, and Western blot performed using eIF4G antibody. (FIG. 3F) R-Luc and F-Luc activities were assayed in ES-2-DualLuc cells at 6 hours after addition of the indicated concentrations of peptides, and are expressed relative to the respective luciferase activities in cells incubated without peptide. Shown are results of triplicate assays performed independently two times, and the statistical significance of differences in relative R-Luc and F-Luc activities in cells treated with peptide at a concentration of 10 micromoles per liter (FIG. 3G) Cells of GnRH-RI-positive and -negative lines were treated with the indicated concentrations of peptides. Viability at 3 days after peptide addition is expressed relative to viability of cells incubated with no peptide. Shown are results of triplicate assays performed in two independent experiments, and statistical significances of differences in viability of cells treated with wild-type vs. mutant [DLys6]GnRH-4EBP1 peptides at a concentration of 10 micromoles per liter. (FIG. 3H) ES-2 and parental SKOV3 cells at 3 days after peptide addition (30 micromoles per liter) viewed under phase-contrast microscopy. […]

OVCAR-3 cells = experiment: Cell viability assay (crystal violet); type: cell-based; conditions: OVCAR-3, 3 days after peptide addition, 0.3 to 30 micromoles per liter
Experimental: as §3, with “Shown are results of triplicate assays performed in two independent experiments, and statistical significances of differences in viability of cells treated with TAT-4EBP1-WT vs. TAT-4EBP1-MT, and of cells treated with TAT-4EBP2-WT vs. TAT-4EBP2-MT at a concentration of 10 micromoles per liter. (FIG. 2E) OVCAR-3 cells at 3 days after peptide addition (10 micromoles per liter) viewed under phase-contrast microscopy. (FIG. 2F) Flow cytometric analysis of staining of terminal deoxynucleotidyl transferase-mediated dUTP nick end labeling (TUNEL) in OVCAR-3 cells at 3 days after peptide addition (10 micromoles per liter). Cells incubated for 3 days in the absence of peptide in medium with and without serum are included as controls.” left out
FIGS. 3A-3H. […] Precipitates (P) and supernatants (S) were analyzed by Western blot using eIF4E antibody. […]

[2] = rapamycin 24 hours, cycloheximide 3 hours

T1 sequence (P06730 whole entry): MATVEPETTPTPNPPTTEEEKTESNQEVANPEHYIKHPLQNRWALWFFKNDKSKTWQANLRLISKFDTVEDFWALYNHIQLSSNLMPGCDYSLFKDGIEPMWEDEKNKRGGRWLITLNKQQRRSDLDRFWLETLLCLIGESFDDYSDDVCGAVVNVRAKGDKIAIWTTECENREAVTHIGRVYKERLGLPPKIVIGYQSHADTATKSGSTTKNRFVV

Question: With “4EBP2-WT: peptide containing the region of 4EBP2 corresponding to residues 49-68 of 4EBP1 (GTRIIYDRKFLLDRRNSPMA)” as the compound, how does the “binding of peptide to eIF4E” value (eIF4E) read?
Answer: The value was “bound to eIF4E”.

Question: And the “inhibition of eIF4E binding to eIF4G” value [1]?
Answer: Its value is “inhibited eIF4E from binding eIF4G”.

Question: Which results are given for `C[C@@H]1C[C@@H]([C@H](O)CC2CC(=O)NC(=O)C2)C(=O)[C@@H](C)C1` [cycloheximide]?
Answer: cap-dependent translation (R-Luc read-out) (ES-2-DualLuc cells; [2]): inhibited both cap-dependent and independent translation; cap-independent translation (F-Luc readout) (ES-2-DualLuc cells; [2]): inhibited both cap-dependent and independent translation; cell viability under translation assay conditions (ES-2-DualLuc cells; [2]): not affected

Question: For `CO[C@H]1C[C@@H]2CC[C@@H](C)[C@@](O)(O2)C(=O)C(=O)N2CCCC[C@H]2C(=O)O[C@H]([C@H](C)C[C@@H]2CC[C@@H](O)[C@H](OC)C2)CC(=O)[C@H](C)/C=C(\C)[C@@H](O)[C@@H](OC)C(=O)[C@H](C)C[C@H](C)/C=C/C=C/C=C/1C` [rapamycin], which “cell viability under translation assay conditions” value (ES-2-DualLuc cells) is on record?
Answer: The value was “not affected”.

Question: Which results are given for “TAT-4EBP1-MT: TAT-4EBP1 fusion peptide in which Tyr-54, Arg-56 and Leu-59 were substituted by Gly (YGRKKRRQRRRGTRIIGDGKFGMECRNSPVT)”?
Answer: binding of peptide to eIF4E (eIF4E): substantially impaired; inhibition of eIF4E binding to eIF4G [1]: substantially impaired

Question: For “TAT-4EBP2-MT: TAT-4EBP2 fusion peptide in which Tyr-54, Arg-56 and Leu-59 were substituted by Gly (YGRKKRRQRRRGTRIIGDGKFGLDRRNSPMA)”, which “binding of peptide to eIF4E” value (eIF4E) is on record?
Answer: Its value is “substantially impaired”.

Question: What about the “inhibition of eIF4E binding to eIF4G” value [1] of the same compound?
Answer: Its value is “substantially impaired”.

Question: How did the “cap-dependent translation (R-Luc read-out)” value (ES-2-DualLuc cells; peptide 6 hours, 0.3 to 10 micromoles per liter, relative to cells without peptide) turn out when “TAT-4EBP2-WT: wild-type 4EBP2 residues fused to cell-penetrating residues of HIV TAT protein (YGRKKRRQRRRGTRIIYDRKFLLDRRNSPMA)” was run?
Answer: The value was “also inhibited cap-dependent translation, but was slightly less effective than TAT-4EBP1-WT”.

Question: And the “cell viability / growth” value (OVCAR-3 cells)?
Answer: Its value is “decreased cell viability in a dose-dependent manner”.

From patent US20110319338A1, “PEPTIDES THAT BIND EUKARYOTIC TRANSLATION INITIATION FACTOR 4E” (The Board of Regents of the University of Texas System, priority 2008, published 2011)
